Laboratory results: the supplement of paper PMC9112550, “Optimization of the antimicrobial peptide Bac7 by deep mutational scanning” (BMC Biology, 2022)

What follows are sequences tested on Escherichia coli TOP10 (assay: shrunken log2 fold change of peptide-encoding DNA abundance (4.5 h post-induction vs induction); higher = less antimicrobial activity (less host growth inhibition)). Details: time post-induction: 4.5 h; library: site-saturation at positions 5, 18, 19, 20.
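Also: peptides expressed intracellularly from a pBAD plasmid library in pooled LB shake-flask culture, induced with 0.3% L-arabinose, DNA abundance read by NGS, three biological replicates, DESeq2 with apeglm shrinkage.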

Sequence | shrunken log2 fold change
RRIRHRPPRLPRPRPRPWVQPRP | 0.0187
RRIRSRPPRLPRPRPRPIQGPRP | -0.127
RRIRPRPPRLPRPRPRPSLNPRP | -0.539
RRIRQRPPRLPRPRPRPNMFPRP | 0.0369
RRIRMRPPRLPRPRPRPCVPPRP | 0.209
RRIRNRPPRLPRPRPRPEEQPRP | 0.202
RRIRDRPPRLPRPRPRPVEMPRP | -0.0847
RRIRKRPPRLPRPRPRPCTQPRP | -0.0701
RRIRKRPPRLPRPRPRPTCSPRP | 0.281
RRIRCRPPRLPRPRPRPCVKPRP | -0.439
RRIRCRPPRLPRPRPRPWTTPRP | -0.138
RRIRHRPPRLPRPRPRPLLTPRP | -0.338
RRIRKRPPRLPRPRPRPIKPPRP | 0.0885
RRIRLRPPRLPRPRPRPRPPPRP | 1.58
RRIRYRPPRLPRPRPRPYKIPRP | -0.573
RRIRCRPPRLPRPRPRPQDAPRP | 0.0575
RRIRPRPPRLPRPRPRPGLTPRP | 0.0985
RRIRSRPPRLPRPRPRPKGTPRP | -0.237
RRIRQRPPRLPRPRPRPCSIPRP | -0.022
RRIRERPPRLPRPRPRPQLTPRP | -0.576
RRIRARPPRLPRPRPRPIAHPRP | 0.13
RRIRVRPPRLPRPRPRPHGYPRP | -0.298
RRIRLRPPRLPRPRPRPVVLPRP | -0.0303
RRIRFRPPRLPRPRPRPRWRPRP | 0.382
RRIRMRPPRLPRPRPRPGDFPRP | 0.215

Sequence | shrunken log2 fold change
RRIRVRPPRLPRPRPRPDERPRP | 0.139
RRIRKRPPRLPRPRPRPDLGPRP | 0.0986
RRIRWRPPRLPRPRPRPHYWPRP | -0.0704
RRIRTRPPRLPRPRPRPKIDPRP | -0.0576
RRIRCRPPRLPRPRPRPPLMPRP | 0.121
RRIRCRPPRLPRPRPRPKAAPRP | 0.115
RRIRDRPPRLPRPRPRPESPPRP | 0.000713
RRIRARPPRLPRPRPRPRGEPRP | 0.613
RRIRNRPPRLPRPRPRPQWPPRP | 0.00622
RRIRCRPPRLPRPRPRPRVEPRP | 0.0473
RRIRARPPRLPRPRPRPWALPRP | 0.172
RRIRWRPPRLPRPRPRPKGPPRP | 3.65
RRIRMRPPRLPRPRPRPTQMPRP | 0.195
RRIRHRPPRLPRPRPRPECLPRP | -0.00297
RRIRDRPPRLPRPRPRPVHTPRP | -0.00587
RRIRMRPPRLPRPRPRPVCVPRP | 0.241
RRIRGRPPRLPRPRPRPIHQPRP | -0.0704
RRIRHRPPRLPRPRPRPYAKPRP | -0.0134
RRIRIRPPRLPRPRPRPYALPRP | -0.0961
RRIRYRPPRLPRPRPRPIGPPRP | -0.00962
RRIRGRPPRLPRPRPRPAVQPRP | 0.797
RRIRRRPPRLPRPRPRPHGAPRP | 0.284
RRIRLRPPRLPRPRPRPEHDPRP | 0.0235
RRIRRRPPRLPRPRPRPWWTPRP | 0.0815
RRIRGRPPRLPRPRPRPWTEPRP | 0.128

Sequence | shrunken log2 fold change
RRIRKRPPRLPRPRPRPNNVPRP | 0.0112
RRIRMRPPRLPRPRPRPNAEPRP | -0.0356
RRIRGRPPRLPRPRPRPIFTPRP | 0.284
RRIRKRPPRLPRPRPRPTSIPRP | 0.208
RRIRDRPPRLPRPRPRPFVPPRP | -0.0913
RRIRFRPPRLPRPRPRPLHGPRP | -0.216
RRIRWRPPRLPRPRPRPNAGPRP | -0.00207
RRIRERPPRLPRPRPRPIVLPRP | -0.579
RRIRYRPPRLPRPRPRPGVAPRP | 0.182
RRIRKRPPRLPRPRPRPAGTPRP | 0.992
RRIRMRPPRLPRPRPRPTGVPRP | 0.224
RRIRTRPPRLPRPRPRPMPWPRP | 0.253
RRIRIRPPRLPRPRPRPAAGPRP | 0.0506
RRIRLRPPRLPRPRPRPKHLPRP | -0.364
RRIRSRPPRLPRPRPRPHSVPRP | -0.036
RRIRMRPPRLPRPRPRPMTYPRP | 0.157
RRIRCRPPRLPRPRPRPPLGPRP | 0.807
RRIRGRPPRLPRPRPRPQELPRP | 0.27
RRIRHRPPRLPRPRPRPYWLPRP | -0.85
RRIRSRPPRLPRPRPRPGSPPRP | 0.106
RRIRVRPPRLPRPRPRPGVKPRP | 0.303
RRIRQRPPRLPRPRPRPFSLPRP | 0.14
RRIRHRPPRLPRPRPRPTFCPRP | -0.186
RRIRTRPPRLPRPRPRPRNAPRP | 0.0522
RRIRARPPRLPRPRPRPIVRPRP | -0.146
